# In patent US20240124560A1:
# How the values were obtained:
# Test in all cases: cell-based or functional assay
# [1] = target: HIV-1 Env of pseudovirus NIH-008_WEAU.d15.410.787 (HIV-1)
# [2] = target: HIV-1 Env of NAC_DH12 (HIV-1)
# [3] = target: HIV-1 Env of pseudovirus NIH-070_R2184.c04 (HIV-1)
# [4] = target: HIV-1 Env of pseudovirus NIH-118_T255.34 (HIV-1)
# [5] = target: HIV-1 Env of pseudovirus NIH-119_T211.9 (HIV-1)
# [6] = target: HIV-1 Env of NIH-055_CNE58 (HIV-1)
# [7] = target: HIV-1 Env of NIH-107_T251.18 (HIV-1)
# [8] = target: HIV-1 Env of pseudovirus NIH-104_3103.v3.c10 (HIV-1)
# [9] = target: HIV-1 Env of pseudovirus NIH-063_0330.v4.c3 (HIV-1)
# [10] = target: HIV-1 Env of pseudovirus NAC_HxB2 (HIV-1) (UniProt P04578)
# [11] = target: HIV-1 Env of pseudovirus NIH-031_HIV-16055.2.3 (HIV-1)
# [12] = target: HIV-1 Env of pseudovirus NIH-115_928.28 (HIV-1)
# [13] = target: HIV-1 Env of NIH-118_T255.34 (HIV-1)
# [14] = target: HIV-1 Env of isolate NIH-098_89.F1 2 25 (HIV-1)
# [15] = target: HIV-1 Env of isolate NIH-087_P1981 C5 3 (HIV-1)
# [16] = target: HIV-1 Env of pseudovirus NIH-010_1054.07.TC4.1499 (HIV-1)
# [17] = target: HIV-1 Env of pseudovirus NIH-022_ZM233M.PB6 (HIV-1)
# [18] = target: HIV-1 Env of pseudovirus NIH-114_T257.31 (HIV-1)
# [19] = target: HIV-1 Env of pseudovirus NIH-007_CAAN5342.A2 (HIV-1)
# [20] = target: HIV-1 Env of pseudovirus NIH-107_T251.18 (HIV-1)
# [21] = target: HIV-1 Env of pseudovirus NIH-076_CNE5 (HIV-1)
# [22] = target: HIV-1 Env of pseudovirus NAC_REJO.67 (HIV-1)
# [23] = target: HIV-1 Env of isolate NIH-085_X2088 c9 (HIV-1)
# [24] = target: HIV-1 Env of pseudovirus NIH-045_7030102001E5(Rev.) (HIV-1)
# [25] = target: HIV-1 Env of NIH-027_CAP45.G3 (HIV-1)
# [26] = target: HIV-1 Env of isolate NIH-088_X1632 S2 B10 (HIV-1)
# [27] = target: HIV-1 Env of pseudovirus NIH-032_HIV-16845.2.22 (HIV-1)
# [28] = target: HIV-1 Env of NIH-012_1012.11.TC21.3257 (HIV-1)
# [29] = target: HIV-1 Env of pseudovirus NIH-001_6535.3 (HIV-1)
# [30] = target: HIV-1 Env of pseudovirus NIH-088_X1632 S2 B10 (clade G) (HIV-1)
# [31] = target: HIV-1 Env of pseudovirus NIH-052_CNE30 (HIV-1)
# [32] = target: HIV-1 Env of pseudovirus NIH-023_ZM249M.PL1 (HIV-1)
# [33] = target: HIV-1 Env of NIH-068_620345.c01 (HIV-1)
# [34] = target: HIV-1 Env of NIH-095_6480.v4.c25 (HIV-1)
# [35] = target: HIV-1 Env of NIH-029_HIV-001428.2.42 (HIV-1)
# [36] = target: HIV-1 Env of pseudovirus NAC_YU2 (HIV-1) (UniProt P35961)
# [37] = target: HIV-1 Env of pseudovirus NIH-003_SC422661.8 (HIV-1)
# [38] = target: HIV-1 Env of NIH-024_ZM53M.PB12 (HIV-1)
# [39] = target: HIV-1 Env of NIH-041_BF1266.431a (HIV-1)
# [40] = target: HIV-1 Env of pseudovirus NIH-048_CNE19 (HIV-1)
# [41] = target: HIV-1 Env of NIH-047_Ce704809221 1B3 (HIV-1)
# [42] = target: HIV-1 Env of pseudovirus NIH-100_6041.v3.c23 (HIV-1)
# [43] = target: HIV-1 Env of pseudovirus NAC_93IN905 (HIV-1)
# [44] = target: HIV-1 Env of isolate NIH-090_A07412M1.vrc12 (HIV-1)
# [45] = target: HIV-1 Env of NIH-061_Q259ENVd2.17 (HIV-1)
substance,measurement,setting,value
4E10 (antibody),neutralization IC50,[1],0.621 µg/mL
same,IC80 neutralization,[2],4.89 µg/mL
same,neutralization IC50,[3],0.223 µg/mL
same,neutralization IC50,[4],0.326 µg/mL
same,neutralization IC50,[5],1.2 µg/mL
same,IC80 neutralization,[6],2.24 µg/mL
same,IC80 neutralization,[7],3.97 µg/mL
same,neutralization IC50,[8],8.11 µg/mL
same,neutralization IC50,[9],0.963 µg/mL
same,neutralization IC50,[10],0.021 µg/mL
same,neutralization IC50,[11],1.59 µg/mL
same,neutralization IC50,[12],0.112 µg/mL
same,IC80 neutralization,[13],1.38 µg/mL
same,"IC80 (µg/ml), TZM-bl pseudovirus neutralization",[14],21.7 µg/mL
same,"IC80 (µg/ml), TZM-bl pseudovirus neutralization",[15],0.406 µg/mL
same,neutralization IC50,[16],1.35 µg/mL
same,neutralization IC50,[17],1.05 µg/mL
same,neutralization IC50,[18],1.03 µg/mL
same,neutralization IC50,[19],2.84 µg/mL
same,neutralization IC50,[20],0.905 µg/mL
same,neutralization IC50,[21],1.34 µg/mL
same,neutralization IC50,[22],1.87 µg/mL
same,"IC80 (µg/ml), TZM-bl pseudovirus neutralization",[23],> 50 µg/mL
same,neutralization IC50,[24],3.41 µg/mL
same,IC80 neutralization,[25],4.19 µg/mL
same,"IC80 (µg/ml), TZM-bl pseudovirus neutralization",[26],10.4 µg/mL
same,neutralization IC50,[27],0.097 µg/mL
same,IC80 neutralization,[28],8.25 µg/mL
same,neutralization IC50,[29],0.519 µg/mL
same,"IC50 (µg/ml), TZM-bl cell neutralization assay, pseudovirus",[30],2.57 µg/mL
same,neutralization IC50,[31],4.17 µg/mL
same,neutralization IC50,[32],1.44 µg/mL
same,IC80 neutralization,[33],3.06 µg/mL
same,IC80 neutralization,[34],3.04 µg/mL
same,IC80 neutralization,[35],24.7 µg/mL
same,neutralization IC50,[36],15.9 µg/mL
same,neutralization IC50,[37],2.78 µg/mL
same,IC80 neutralization,[38],42.6 µg/mL
same,IC80 neutralization,[39],10 µg/mL
same,neutralization IC50,[40],0.31 µg/mL
same,IC80 neutralization,[41],0.557 µg/mL
same,neutralization IC50,[42],5.48 µg/mL
same,neutralization IC50,[43],0.11 µg/mL
same,"IC80 (µg/ml), TZM-bl pseudovirus neutralization",[44],10.4 µg/mL
same,IC80 neutralization,[45],28.9 µg/mL
PGZL1 (antibody),neutralization IC50,[1],10 µg/mL
same,IC80 neutralization,[2],19 µg/mL
same,neutralization IC50,[3],12.9 µg/mL
same,neutralization IC50,[4],3.35 µg/mL
same,neutralization IC50,[5],13.2 µg/mL
same,IC80 neutralization,[6],14.5 µg/mL
same,IC80 neutralization,[7],> 50 µg/mL
same,neutralization IC50,[8],> 50 µg/mL
same,neutralization IC50,[9],22.1 µg/mL
same,neutralization IC50,[10],0.121 µg/mL
same,neutralization IC50,[11],10.9 µg/mL
same,neutralization IC50,[12],1.38 µg/mL
same,IC80 neutralization,[13],13.2 µg/mL
same,"IC80 (µg/ml), TZM-bl pseudovirus neutralization",[14],> 50 µg/mL
same,"IC80 (µg/ml), TZM-bl pseudovirus neutralization",[15],5.55 µg/mL
same,neutralization IC50,[16],5.15 µg/mL
same,neutralization IC50,[17],5.9 µg/mL
same,neutralization IC50,[18],29.6 µg/mL
same,neutralization IC50,[19],34 µg/mL
same,neutralization IC50,[20],43 µg/mL
same,neutralization IC50,[21],24.6 µg/mL
same,neutralization IC50,[22],10.7 µg/mL
same,"IC80 (µg/ml), TZM-bl pseudovirus neutralization",[23],> 50 µg/mL
same,neutralization IC50,[24],49.6 µg/mL
same,IC80 neutralization,[25],> 50 µg/mL
same,"IC80 (µg/ml), TZM-bl pseudovirus neutralization",[26],> 50 µg/mL
same,neutralization IC50,[27],0.424 µg/mL
same,IC80 neutralization,[28],> 50 µg/mL
same,neutralization IC50,[29],1.42 µg/mL
same,"IC50 (µg/ml), TZM-bl cell neutralization assay, pseudovirus",[30],15.5 µg/mL
same,neutralization IC50,[31],40.5 µg/mL
same,neutralization IC50,[32],12.7 µg/mL
same,IC80 neutralization,[33],> 50 µg/mL
same,IC80 neutralization,[34],> 50 µg/mL
same,IC80 neutralization,[35],> 50 µg/mL
same,neutralization IC50,[36],> 50 µg/mL
same,neutralization IC50,[37],16.8 µg/mL
same,IC80 neutralization,[38],> 50 µg/mL
same,IC80 neutralization,[39],> 50 µg/mL
same,neutralization IC50,[40],3.12 µg/mL
same,IC80 neutralization,[41],3.1 µg/mL
same,neutralization IC50,[42],> 50 µg/mL
same,neutralization IC50,[43],0.404 µg/mL
same,"IC80 (µg/ml), TZM-bl pseudovirus neutralization",[44],> 50 µg/mL
same,IC80 neutralization,[45],> 50 µg/mL
VRC01 (antibody),neutralization IC50,[1],0.076 µg/mL
same,IC80 neutralization,[2],0.898 µg/mL
same,neutralization IC50,[3],0.103 µg/mL
same,neutralization IC50,[4],0.229 µg/mL
same,neutralization IC50,[5],12.8 µg/mL
same,IC80 neutralization,[6],0.331 µg/mL
same,IC80 neutralization,[7],8.63 µg/mL
same,neutralization IC50,[8],1.53 µg/mL
same,neutralization IC50,[9],0.033 µg/mL
same,neutralization IC50,[10],0.022 µg/mL
same,neutralization IC50,[11],0.053 µg/mL
same,neutralization IC50,[12],0.249 µg/mL
same,IC80 neutralization,[13],0.925 µg/mL
same,"IC80 (µg/ml), TZM-bl pseudovirus neutralization",[14],> 50 µg/mL
same,"IC80 (µg/ml), TZM-bl pseudovirus neutralization",[15],0.8 µg/mL
same,neutralization IC50,[16],0.909 µg/mL
same,neutralization IC50,[17],1.41 µg/mL
same,neutralization IC50,[18],1.61 µg/mL
same,neutralization IC50,[19],0.691 µg/mL
same,neutralization IC50,[20],2.02 µg/mL
same,neutralization IC50,[21],0.059 µg/mL
same,neutralization IC50,[22],0.106 µg/mL
same,"IC80 (µg/ml), TZM-bl pseudovirus neutralization",[23],> 50 µg/mL
same,neutralization IC50,[24],0.38 µg/mL
same,IC80 neutralization,[25],10.1 µg/mL
same,"IC80 (µg/ml), TZM-bl pseudovirus neutralization",[26],1.35 µg/mL
same,neutralization IC50,[27],0.968 µg/mL
same,IC80 neutralization,[28],0.318 µg/mL
same,neutralization IC50,[29],0.946 µg/mL
same,"IC50 (µg/ml), TZM-bl cell neutralization assay, pseudovirus",[30],0.338 µg/mL
same,neutralization IC50,[31],0.593 µg/mL
same,neutralization IC50,[32],0.05 µg/mL
same,IC80 neutralization,[33],> 50 µg/mL
same,IC80 neutralization,[34],0.054 µg/mL
same,IC80 neutralization,[35],0.068 µg/mL
same,neutralization IC50,[36],0.123 µg/mL
same,neutralization IC50,[37],0.124 µg/mL
same,IC80 neutralization,[38],3.63 µg/mL
same,IC80 neutralization,[39],0.11 µg/mL
same,neutralization IC50,[40],0.127 µg/mL
same,IC80 neutralization,[41],1.28 µg/mL
same,neutralization IC50,[42],0.023 µg/mL
same,neutralization IC50,[43],0.07 µg/mL
same,"IC80 (µg/ml), TZM-bl pseudovirus neutralization",[44],0.216 µg/mL
same,IC80 neutralization,[45],0.449 µg/mL
